In publication doi:10.1101/2022.10.17.512557:

Target: proteasomal catalytic (20S) particle (rat (endogenous in cultured cortical neurons)) (UniProt P48004)
Test: native gel or EMSA

Sequence of UniProt P48004 (P48004 whole entry, looked up): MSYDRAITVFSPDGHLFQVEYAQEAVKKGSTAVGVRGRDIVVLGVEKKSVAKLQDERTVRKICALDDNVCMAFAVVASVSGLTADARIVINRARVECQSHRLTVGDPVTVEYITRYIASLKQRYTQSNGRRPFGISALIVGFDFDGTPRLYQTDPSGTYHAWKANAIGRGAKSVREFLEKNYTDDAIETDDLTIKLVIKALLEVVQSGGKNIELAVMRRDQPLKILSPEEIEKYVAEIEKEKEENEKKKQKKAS

percent of total 20S in the free 20S band (neurite fraction): 50%
Substance: proteasomal regulatory (19S) particle (from UniProt P62193 1-440) (complex)
